The record followed here is US20260347449 (published 2026).

Substitutions are numbered along the chain they refer to.

The target in test [1] is T1, human C5 (human, UniProt P01031). In words: BLI.
Test [2] addresses T1, human C5. The test is described as follows: ELISA. On the technique in general: In an ELISA, binding on a coated surface is turned into a signal by an enzyme label.
The target in test [3] is T2, human C3 (human, UniProt P01024). In words: ELISA.
In test [4] the target is human C5 W917S (human, UniProt P01031). The test is described as follows: BLI.
In test [5] the target is T3, cynomolgus C5 (cynomolgus).
T3 chain: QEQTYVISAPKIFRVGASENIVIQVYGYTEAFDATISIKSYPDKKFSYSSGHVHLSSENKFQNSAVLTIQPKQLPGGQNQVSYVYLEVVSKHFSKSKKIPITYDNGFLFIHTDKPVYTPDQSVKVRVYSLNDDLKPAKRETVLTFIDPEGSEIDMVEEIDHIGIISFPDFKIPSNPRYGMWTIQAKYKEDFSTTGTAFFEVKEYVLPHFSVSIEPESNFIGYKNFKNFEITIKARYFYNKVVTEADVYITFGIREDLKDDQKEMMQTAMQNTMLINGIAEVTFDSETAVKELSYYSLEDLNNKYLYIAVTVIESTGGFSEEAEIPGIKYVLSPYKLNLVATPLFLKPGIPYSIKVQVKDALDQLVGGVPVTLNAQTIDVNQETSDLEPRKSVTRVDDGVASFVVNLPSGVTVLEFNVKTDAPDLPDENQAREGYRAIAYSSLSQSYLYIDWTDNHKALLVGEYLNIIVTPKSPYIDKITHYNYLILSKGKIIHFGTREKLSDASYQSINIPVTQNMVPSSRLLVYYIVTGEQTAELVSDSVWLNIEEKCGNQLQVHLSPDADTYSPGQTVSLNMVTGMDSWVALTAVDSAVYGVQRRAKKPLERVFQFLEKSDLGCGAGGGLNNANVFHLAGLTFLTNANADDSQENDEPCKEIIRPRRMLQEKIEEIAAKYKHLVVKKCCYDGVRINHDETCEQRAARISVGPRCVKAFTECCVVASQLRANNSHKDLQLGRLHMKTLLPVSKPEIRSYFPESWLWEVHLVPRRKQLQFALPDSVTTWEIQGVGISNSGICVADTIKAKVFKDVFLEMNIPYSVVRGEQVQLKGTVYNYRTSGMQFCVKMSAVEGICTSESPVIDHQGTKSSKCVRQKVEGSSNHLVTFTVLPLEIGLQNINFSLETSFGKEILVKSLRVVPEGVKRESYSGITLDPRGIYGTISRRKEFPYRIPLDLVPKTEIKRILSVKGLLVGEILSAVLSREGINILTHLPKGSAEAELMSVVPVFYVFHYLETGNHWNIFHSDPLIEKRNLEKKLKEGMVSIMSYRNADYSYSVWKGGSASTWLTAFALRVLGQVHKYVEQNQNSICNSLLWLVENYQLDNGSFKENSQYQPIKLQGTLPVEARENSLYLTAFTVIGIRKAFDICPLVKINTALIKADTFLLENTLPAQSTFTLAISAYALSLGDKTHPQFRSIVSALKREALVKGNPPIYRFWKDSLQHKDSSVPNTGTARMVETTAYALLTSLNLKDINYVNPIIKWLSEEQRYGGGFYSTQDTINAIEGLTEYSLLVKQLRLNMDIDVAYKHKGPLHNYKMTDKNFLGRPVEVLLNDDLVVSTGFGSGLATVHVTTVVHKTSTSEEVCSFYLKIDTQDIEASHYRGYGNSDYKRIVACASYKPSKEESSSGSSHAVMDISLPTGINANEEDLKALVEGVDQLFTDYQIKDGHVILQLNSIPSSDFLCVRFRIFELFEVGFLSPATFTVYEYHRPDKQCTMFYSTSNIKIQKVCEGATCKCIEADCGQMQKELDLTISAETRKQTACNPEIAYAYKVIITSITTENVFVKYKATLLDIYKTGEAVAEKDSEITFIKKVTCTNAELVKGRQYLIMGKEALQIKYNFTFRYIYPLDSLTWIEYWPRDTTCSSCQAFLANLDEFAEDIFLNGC
In words: BLI. On the technique in general: BLI is a label-free optical method that tracks binding on a fibre tip over time.

For test [6], the target named is T2, human C3. In words: BLI.
For test [7], the target named is T1, human C5. In words: BLI. The source holds these as a separate data set.
For test [8], the target named is T1, human C5. In words: BLI. The source holds these as a separate data set.
The target of test [9] is human C5 R885H (human, UniProt P01031). The test is described as follows: BLI.
Test [10] concerns the target T1, human C5. In words: BLI, bivalent.
The target of test [11] is T2, human C3. In words: BLI. The source holds these as a separate data set.
The target in test [12] is T2, human C3. In words: BLI. This is another data set of the same source.
In test [13] the target is T1, human C5. The test is described as follows: BLI. The source holds these as a separate data set.
The target in test [14] is T2, human C3. In words: BLI, bivalent.
Test [15] deals with T2, human C3. In words: BLI. This is another data set of the same source.
Test [16] addresses T2, human C3. In words: BLI. The source holds these as a separate data set.

B1: C5S1 (antibody, V domains shown)
VH: QVQLQESGGGLVQAGGSLRLSCAASGYISYDDDMGWYRQAPGKEREFVAAIDVGGSTYYADSVKGRFTISRDNAKNTVYLQMNSLKPEDTAVYYCAVRDGYYWDHDYWGQGTQVTVSS
Turning to B1, the Kd in test [1] was found to be 9.5 nM.

B2: C5S12 (antibody, V domains shown)
VH: QVQLQESGGGLVQAGGSLRLSCAASGYIFPSDDMGWYRQAPGKEREFVAAINDGASTYYADSVKGRFTISRDNAKNTVYLQMNSLKPEDTAVYYCAVQLNYYWDYVYWGQGTQVTVSS
Take B2: the binding result in [2] is recorded as “no binding”.

B3: C5S5 (antibody, V domains shown)
VH: QVQLQESGGGLVQAGGSLRLSCAASGTISPYEGMGWYRQAPGKERELVAAIDGGGITYYADSVKGRFTISRDNAKNTVYLQMNSLKPEDTAVYYCAAGIWTLSYYDYWGQGTQVTVSS
The molecule B3 gave a Kd in test [1] of 13 nM.

B4: C3S5 (antibody, V domains shown)
VH: QVQLQESGGGLVQAGGSLRLSCAASGTIFDDESMGWYRQAPGKEREFVASINYGSTTYYADSVKGRFTISRDNAKNTVYLQMNSLKPEDTAVYYCAVGWSTNYDWTLSYYYWGQGTLVTVSS
In the case of B4, the binding result in test [3] is recorded as “no binding”.

B5: eculizumab (antibody, V domains shown)
VH: QVQLVQSGAEVKKPGASVKVSCKASGYIFSNYWIQWVRQAPGQGLEWMGEILPGSGSTEYTENFKDRVTMTRDTSTSTVYMELSSLRSEDTAVYYCARYFFGSSPNWYFDVWGQGTLVTVSS
VL: DIQMTQSPSSLSASVGDRVTITCGASENIYGALNWYQQKPGKAPKLLIYGATNLADGVPSRFSGSGSGTDFTLTISSLQPEDFATYYCQNVLNTPLTFGQGTKVEIKR
For the molecule B5, the binding result in test [4] was “no binding”.

B6: C5S2.2 (antibody, V domains shown)
VH: EVQLVESGGGLVQAGGSLRLSCAASGNIFHQSDMGWYRQAPGKEREFVAAIDYGTNTYYADSVKGRFTISRDNSKNTLYLQMNSLRPEDTAVYYCAARDTSYWDHVYWGQGTLVTVSS
With B6, the binding result in test [4], in [5], in [6] and in test [9] was “no binding” throughout. The Kd in test [7] and in [8] was 12 nM in each case.

B7: C5S2.2-Fc (antibody, V domains shown)
VH: B6 VH
For B7, the Kd in [10] is 0.654 nM.

B8: C5S2 (antibody, V domains shown)
VH: B6 VH with E1Q, V5Q, S74A, L78V, R86K, L113Q
Consider B8, for which the binding result in test [5] and in test [6] was “no binding” throughout. The figures for the Kd in test [8] and in test [1] were 6.29 nM and 1.98 nM, respectively.

B9: C3S3.2 (antibody, V domains shown)
VH: EVQLVESGGGLVQAGGSLRLSCAASGTIFSRNYMGWYRQAPGKERELVAGIGYGSSTNYADSVKGRFTISRDNSKNTLYLQMNSLRPEDTAVYYCAAVPTYRPYYFYWGQGTLVTVSS
With B9, the binding result in test [5] and in test [13] was “no binding” throughout. Further, the Kd was determined as 6 nM in test [11] and 5.83 nM in [12].

B10: C3S3.2-Fc (antibody, V domains shown)
VH: B9 VH
Regarding B10, in test [14], the Kd is 0.703 nM.

B11: C3S3 (antibody, V domains shown)
VH: B9 VH with E1Q, V5Q, S74A, L78V, R86K, L113Q
In the case of B11, the binding result in test [5] and in [13] was “no binding” in each case. Also, the Kd is 23 nM in [15] and 4.97 nM in test [12].

B12: C3S10 (antibody, V domains shown)
VH: QVQLQESGGGLVQAGGSLRLSCAASGYISGGSIMGWYRQAPGKEREFVAGINQGSNTYYADSVKGRFTISRDNAKNTVYLQMNSLKPEDTAVYYCAVGGRSYYYHHYWGQGTQVTVSS
B12: the binding result in [3] is on record as “no binding”.

B13: C3S7 (antibody, V domains shown)
VH: QVQLQESGGGLVQAGGSLRLSCAASGYIFTGVDMGWYRQAPGKEREFVAAISYGASTYYADSVKGRFTISRDNAKNTVYLQMNSLKPEDTAVYYCAASLSNTYLLDLFFRYWGQGTQVTVSS
For the molecule B13, the binding result in test [16] is “no binding”.

B14: C5S8 (antibody, V domains shown)
VH: QVQLQESGGGLVQAGGSLRLSCAASGNIFDEWDMGWYRQAPGKEREFVAAIDDGASTYYADSVKGRFTISRDNAKNTVYLQMNSLKPEDTAVYYCAARQTYAWDYRYWGQGTQVTVSS
For the molecule B14, the Kd in test [1] is 7 nM.

B15: C3N10.3 (antibody, V domains shown)
VH: EVQLVESGGGLVQAGGSLRLACAASGLTFSPYAMGWFRQAPGKEREFVAGIRWISGNPYYADSVKGRFTISRDNSKNTLYLQMNSLRPEDTAVYSCAAAPLTRSYDYWGQGTLVTVSS
As for B15, the binding result in test [5] and in test [13] was “no binding” each time. Moreover, the figures for the Kd in test [11] and in test [12] were 5 nM and 5.32 nM, respectively.

B16: C3N10.3-Fc (antibody, V domains shown)
VH: B15 VH
In the case of B16, the Kd in test [14] was determined as 3.25 nM.

B17: C3N10 (antibody, V domains shown)
VH: B15 VH with E1D, S75A, L79V, R87K, L113Q
Take B17: the binding result in test [5] and in [13] was “no binding” in each case. The Kd came to 7.6 nM in [15] and 3.64 nM in [12].
